The text below walks through data of patent US20220072098A1 (priority 2012, published 2022).

The data set in a line: Tissue distribution of trypsinogen-AlexaFluor-488 after i.v. injection. Format: in vivo, mice. As to conditions: 200 μg i.v., 30 min. How it is done:
Trypsinogen—AlexaFluor®-488 was injected i.v. in its free form or encapsulated in the bolavesicles. At 30 min after the injection, mice were anesthetized by Xylazine-Ketamine mixture and blood was withdrawn through cardiac puncture, the mouse was perfused with 10 ml PBS and tissues were dissected out. The dissected tissues were attached to labeled paper stripes, frozen in isopentane cooled over liquid nitrogen, and stored at −80° C. The selected tissues were cryosectioned and the fluorescence of the sections was analyzed using confocal fluorescent microscopy. All images were acquired using the same imaging settings and were not corrected or modified. Fluorescence of slices from different organs was quantified by imaging software after subtracting background fluorescence. In effect, for quantifying the fluorescence in the tissue, the average fluorescence obtained from the control mice, which were injected with PBS instead of the fluorescent material was subtracted from the fluorescence values obtained from the same tissue taken from animals that received Trypsinogen-AlexaFluor®-488. At least 4 slices from each organ of each mouse were used for the quantitative analysis and each group contained 4-5 mice.
Prior to delivering GDNF to the brain, pilot experiment, in vivo, studies were carried out with the model protein—trypsinogen, which was labeled for this purpose with AlexaFluor®-488. […]

B1: free labeled protein: free trypsinogen labeled with AlexaFluor-488 (protein, UniProt P00760 18-246, looked up)
pro-form: VDDDDKIVGGYTCGANTVPYQVSLNSGYHFCGGSLINSQWVVSAAHCYKSGIQVRLGEDNINVVEGNEQFISASKSIVHPSYNSNTLNNDIMLIKLKSAASLNSRVASISLPTSCASAGTQCLISGWGNTKSSGTSYPDVLKCLKAPILSDSSCKSAYPGQITSNMFCAGYLEGGKDSCQGDSGGPVVCSGKLQGIVSWGSGCAQKNKPGVYTKVCNYVSWIKQTIASN
modifications: pro-form AlexaFluor-488 label
As to B1, the “labeled trypsinogen fluorescence in kidney” value is recorded as “high fluorescence”.
